Residue numbers refer to the chain shown, from its start. In names and notes the source's numbering stands.

Usually Km stands for the concentration of substrate that gives half-maximal velocity. In general, Vmax refers to the rate approached at saturating substrate.

Substrate in the data set “NADH oxidation, A340”: C/C=C/C(=O)SCCNC(=O)CCNC(=O)[C@H](O)C(C)(C)COP(=O)(O)OP(=O)(O)OC[C@H]1O[C@@H](n2cnc3c(N)ncnc32)[C@H](O)[C@@H]1OP(=O)(O)O
Description: NADH oxidation, A340. The settings on record: 0.3 mM NADH, 100 mM MOPS-KOH pH 7.5, 55 °C. It is filed as biochemical, Winmispira thermophila. The source says: NADH oxidation, A340 on St_Ter

Substrate in data set [1]: NC(=O)C1=CN([C@@H]2O[C@H](COP(=O)(O)OP(=O)(O)OC[C@H]3O[C@@H](n4cnc5c(N)ncnc54)[C@H](O)[C@@H]3O)[C@@H](O)[C@H]2O)C=CC1
The data set can be described thus: NAD(P)H oxidation, A340. It is filed as biochemical, Winmispira thermophila. The settings on record: crotonyl-CoA as substrate, 100 mM MOPS-KOH pH 7.5, 55 °C, varied: cofactor. From the text: (§1) NAD(P)H oxidation, A340 on St_Ter

Substrate in data set [2]: NC(=O)C1=CN([C@@H]2O[C@H](COP(=O)(O)OP(=O)(O)OC[C@H]3O[C@@H](n4cnc5c(N)ncnc54)[C@H](OP(=O)(O)O)[C@@H]3O)[C@@H](O)[C@H]2O)C=CC1
The data set can be described thus: NAD(P)H oxidation, A340. Format: biochemical, Winmispira thermophila. To be noted: crotonyl-CoA as substrate, 100 mM MOPS-KOH pH 7.5, 55 °C, varied: cofactor.
Source text: as §1

Substrate in the data set “coupled Hbd assay, A340”: CC(=O)SCCNC(=O)CCNC(=O)[C@H](O)C(C)(C)COP(=O)(O)OP(=O)(O)OC[C@H]1O[C@@H](n2cnc3c(N)ncnc32)[C@H](O)[C@@H]1OP(=O)(O)O
The data set can be described thus: coupled Hbd assay, A340. Format: biochemical, Thermoanaerobacterium thermosaccharolyticum. To be noted: coupled with Hbd, 100 mM MOPS-KOH pH 7.5, 55 °C. From the text: coupled Hbd assay, A340 on Tt_Thl

B1: St_Ter (Winmispira thermophila DSM 6578) (protein)
chain: MVIKPMIRNNICMNAHPEGCRLFVDRQIDYVRQRGPLSSGPKNVLVVGSSGGYGLATRIAAGFGAGAATIGVYFEKEPSEKRTGTPGWYAARHFLKRAEAAGLKVHDINGDAFSFEVKAQVVDLIKKEYGTIDLFVYSLASGVRTDPVSGVTYRSALKPIGRTYTSKALDPLKREVVQAAIEPASEEEIEATVKVMGGEDWQLWVEALKEGGVLAEGAVTVAYSYIGPELTRPIYREGTIGKAKEHLEATAKTLDEALASVGGKAYVSVNKAVVTRASAVIPAVPLYLSILFTVMKAKGIHEGCIEQMYRMLAERLYAGGPVPVDDEGRIRMDDWEMREDVQREVAEVWERITTETLDTEADVDGYLTDFLNLHGFGFKEIDYEKEVDPREG
notes: His-tagged (vector pD861-CH), codon-optimised, expressed in E. coli BL21(DE3)
With B1, the Michaelis constant (Km) is given as 0.03 ± 0.01 mM in the data set “NADH oxidation, A340”; 0.03 ± 0.01 mM in “NAD(P)H oxidation, A340 [1]”; 0.4 ± 0.1 mM in “NAD(P)H oxidation, A340 [2]”. Also, the Vmax in “NAD(P)H oxidation, A340 [1]” stood at 18.2 µmol/min/mg; in “NAD(P)H oxidation, A340 [2]”, 12.2 µmol/min/mg.

B2: St_Ter (Winmispira thermophila DSM 6578; E75A) (protein)
chain: B1 chain with E75A
notes: as for B1
Turning to B2, in “NAD(P)H oxidation, A340 [1]”, the Km was 0.6 ± 0.1 mM and the Vmax was determined as 10.3 µmol/min/mg. In “NAD(P)H oxidation, A340 [2]”, the Km is listed as 0.02 ± 0.01 mM and the Vmax was 68.1 µmol/min/mg.

B3: Tt_Thl (Thermoanaerobacterium thermosaccharolyticum DSM 571) (protein)
chain: MKEVVIASGVRTAVGKFGGTLLNVPAVDLGAVVIKEALKRANVKPEDVSEVIMGNVLQAGLGQNPARQAEIKAGIPVEVPAMTVNMVCGSGLRAVTLAAQAVMLGDADIVVAGGMENMSRAPYILNDARFGYRMNNGQLVDEMVYDGLTDVFNQYHMGITAENLAEKYGISREEQDEFAYRSQKLASEAISSGRFEDEIVPVIVPQKKGEPIEFKVDEHVRPNTTIEALAKLKPAFKKDGTVTAGNASGINDAAAAVVVMSKEKADELGIKPLATIKSFGYAGVDPSIMGIGPVYATRKALEKANLTVDDLDLIEANEAFAAQSLAVAKELKFNMDRVNVNGGAIAIGHPIGASGCRILVTLLYEMQKRNSHTGLATLCIGGGMGIAMVVER
notes: as for B1
Take B3: the Michaelis-Menten constant (Km) in “coupled Hbd assay, A340” (0.3 mM NADH) was found to be 2.4 ± 0.58 mM.

B4: Tt_Thl (Thermoanaerobacterium thermosaccharolyticum DSM 571; H156N/N223V/P222F/R133G) (protein)
chain: B3 chain with R133G, H156N, P222F, N223V
notes: as for B1
With B4, in “coupled Hbd assay, A340” (variant M2, NADH), the Michaelis constant (Km) turned out to be 2.6 ± 0.5 mM and the maximum rate (Vmax) came to 45.2 µmol/min/mg.

B5: Tt_Thl (Thermoanaerobacterium thermosaccharolyticum DSM 571; N153Y/S287K/V77Q) (protein)
chain: B3 chain with V77Q, N153Y, S287K
notes: as for B1
Take B5: in the data set “coupled Hbd assay, A340” (variant M1, NADH), the Km was determined as 3.3 ± 0.7 mM and the Vmax turned out to be 15.3 µmol/min/mg.

The record behind these values is PMC6652007, “Metabolic engineering of Clostridium thermocellum for n-butanol production from cellulose” (Biotechnology for Biofuels, 2019).
